From paper PMC2835468 (Matrix biology : journal of the International Society for …, 2009)

Assays:
Assay in all cases: enzyme inhibition kinetics
[1] = target: T1, ADAMTS4-1 (full-length human ADAMTS-4, C-terminal FLAG-tag) (human, UniProt O75173 213-837)
T1 sequence (looked up): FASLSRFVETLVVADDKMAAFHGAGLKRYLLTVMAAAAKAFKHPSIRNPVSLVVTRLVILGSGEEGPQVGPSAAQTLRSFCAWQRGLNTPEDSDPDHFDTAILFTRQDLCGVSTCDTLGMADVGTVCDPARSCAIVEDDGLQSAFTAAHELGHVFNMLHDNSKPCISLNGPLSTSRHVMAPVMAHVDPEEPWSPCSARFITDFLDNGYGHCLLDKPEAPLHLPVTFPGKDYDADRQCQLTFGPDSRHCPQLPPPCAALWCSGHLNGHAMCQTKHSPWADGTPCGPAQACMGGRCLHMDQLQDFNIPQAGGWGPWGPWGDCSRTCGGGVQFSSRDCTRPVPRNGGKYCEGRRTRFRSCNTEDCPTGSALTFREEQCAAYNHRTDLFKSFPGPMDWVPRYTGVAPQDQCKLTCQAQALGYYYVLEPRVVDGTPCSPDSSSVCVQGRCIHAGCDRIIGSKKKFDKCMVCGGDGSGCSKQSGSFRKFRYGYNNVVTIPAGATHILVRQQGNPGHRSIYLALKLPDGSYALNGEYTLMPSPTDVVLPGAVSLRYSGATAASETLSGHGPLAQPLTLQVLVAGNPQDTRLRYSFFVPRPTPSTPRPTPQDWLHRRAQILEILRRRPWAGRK

[2] = target: T2, ADAMTS4-2 (human ADAMTS-4 deletion mutant, C-terminal FLAG-tag) (human, UniProt O75173 213-685)
T2 sequence (looked up): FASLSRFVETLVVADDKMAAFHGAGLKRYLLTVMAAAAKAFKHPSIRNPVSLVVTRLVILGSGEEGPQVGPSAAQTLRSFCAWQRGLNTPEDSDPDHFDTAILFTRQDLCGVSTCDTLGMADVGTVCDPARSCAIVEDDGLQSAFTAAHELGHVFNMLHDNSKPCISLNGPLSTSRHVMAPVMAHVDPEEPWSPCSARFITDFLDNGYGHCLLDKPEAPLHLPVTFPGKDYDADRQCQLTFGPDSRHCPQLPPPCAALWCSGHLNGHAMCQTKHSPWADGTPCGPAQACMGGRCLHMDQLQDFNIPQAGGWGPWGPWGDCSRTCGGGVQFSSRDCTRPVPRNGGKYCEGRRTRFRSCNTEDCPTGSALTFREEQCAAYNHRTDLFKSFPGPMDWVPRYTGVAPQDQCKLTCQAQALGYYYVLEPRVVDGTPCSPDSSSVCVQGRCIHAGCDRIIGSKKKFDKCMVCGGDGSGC

[3] = target: T3, ADAMTS4-3 (human ADAMTS-4 deletion mutant, C-terminal FLAG-tag) (human, UniProt O75173 213-575)
T3 sequence (looked up): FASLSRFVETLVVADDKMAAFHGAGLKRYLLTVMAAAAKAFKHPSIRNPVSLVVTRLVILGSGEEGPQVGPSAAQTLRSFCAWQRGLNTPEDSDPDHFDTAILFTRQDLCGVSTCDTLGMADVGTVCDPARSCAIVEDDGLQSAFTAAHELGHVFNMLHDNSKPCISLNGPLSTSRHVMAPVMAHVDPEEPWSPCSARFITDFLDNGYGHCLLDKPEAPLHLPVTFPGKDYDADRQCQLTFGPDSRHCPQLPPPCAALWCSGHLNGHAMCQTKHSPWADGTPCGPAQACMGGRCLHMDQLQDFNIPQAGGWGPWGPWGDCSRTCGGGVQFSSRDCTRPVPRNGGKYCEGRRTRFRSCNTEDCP

[4] = target: T4, ADAMTS4-4 (human ADAMTS-4 deletion mutant, C-terminal FLAG-tag) (human, UniProt O75173 213-519)
T4 sequence (looked up): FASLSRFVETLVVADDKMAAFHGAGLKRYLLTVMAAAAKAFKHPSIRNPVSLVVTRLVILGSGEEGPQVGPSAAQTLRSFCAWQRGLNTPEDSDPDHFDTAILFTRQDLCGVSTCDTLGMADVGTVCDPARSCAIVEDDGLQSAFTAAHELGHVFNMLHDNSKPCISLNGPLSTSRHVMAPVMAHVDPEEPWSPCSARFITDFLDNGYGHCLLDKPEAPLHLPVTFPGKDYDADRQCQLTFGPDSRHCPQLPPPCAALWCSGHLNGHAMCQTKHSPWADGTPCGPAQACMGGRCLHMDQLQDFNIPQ

Ki [1]: 0.22 nM | Ki [2]: 0.22 nM | Ki [3]: 0.4 nM | Ki [4]: 0.51 nM
B1: FLAG-tagged glycosylated human TIMP-3 (full-length tissue inhibitor of metalloproteinases 3), expressed in HEK293 (natural protein, UniProt P35625 24-211, looked up)
chain: CTCSPSHPQDAFCNSDIVIRAKVVGKKLVKEGPFGTLVYTIKQMKMYRGFTKMPHVQYIHTEASESLCGLKLEVNKYQYLLTGRVYDGKMYTGLCNFVERWDQLTLSQRKGLNYRYHLGCNCKIKSCYYLPCFVTSKNECLWTDMLSNFGYPGYQSKHYACIRQKGGYCSWYRGWAPPDKSIINATDP
modifications: glycosylated (only the 27 kDa glycosylated form remained after purification; single N-glycosylation site in the C-terminal domain)
